Binding result and Kd data for 7 molecules are collected here from patent US20170355992, “FACTOR V/Va-TARGETING APTAMER COMPOSITONS AND METHODS OF USING THE SAME” (Duke University, published 2017).

Series [1] addresses T1, Coagulation Factor Va (FVa), modified (Homo sapiens, UniProt P12259;P12259 P12259:29-737,P12259:1574-2224).
T1 chain 1: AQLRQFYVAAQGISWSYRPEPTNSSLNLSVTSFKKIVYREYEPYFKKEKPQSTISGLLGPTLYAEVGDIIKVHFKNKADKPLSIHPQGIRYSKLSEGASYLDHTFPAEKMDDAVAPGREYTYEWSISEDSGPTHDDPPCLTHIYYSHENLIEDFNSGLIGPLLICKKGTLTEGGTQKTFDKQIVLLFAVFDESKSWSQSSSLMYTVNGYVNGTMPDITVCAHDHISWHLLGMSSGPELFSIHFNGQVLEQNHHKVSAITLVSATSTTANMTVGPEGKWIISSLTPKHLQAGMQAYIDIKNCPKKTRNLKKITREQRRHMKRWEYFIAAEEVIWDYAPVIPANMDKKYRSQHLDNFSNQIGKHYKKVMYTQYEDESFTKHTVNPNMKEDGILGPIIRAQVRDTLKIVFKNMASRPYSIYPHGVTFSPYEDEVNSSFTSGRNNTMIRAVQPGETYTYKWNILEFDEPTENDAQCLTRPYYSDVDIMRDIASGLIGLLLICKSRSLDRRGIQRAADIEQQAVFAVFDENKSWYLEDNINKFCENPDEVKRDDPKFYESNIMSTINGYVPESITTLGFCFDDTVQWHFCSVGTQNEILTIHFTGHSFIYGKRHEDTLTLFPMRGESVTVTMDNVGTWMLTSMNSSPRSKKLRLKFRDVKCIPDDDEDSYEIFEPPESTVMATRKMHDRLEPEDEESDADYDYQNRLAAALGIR
T1 chain 2: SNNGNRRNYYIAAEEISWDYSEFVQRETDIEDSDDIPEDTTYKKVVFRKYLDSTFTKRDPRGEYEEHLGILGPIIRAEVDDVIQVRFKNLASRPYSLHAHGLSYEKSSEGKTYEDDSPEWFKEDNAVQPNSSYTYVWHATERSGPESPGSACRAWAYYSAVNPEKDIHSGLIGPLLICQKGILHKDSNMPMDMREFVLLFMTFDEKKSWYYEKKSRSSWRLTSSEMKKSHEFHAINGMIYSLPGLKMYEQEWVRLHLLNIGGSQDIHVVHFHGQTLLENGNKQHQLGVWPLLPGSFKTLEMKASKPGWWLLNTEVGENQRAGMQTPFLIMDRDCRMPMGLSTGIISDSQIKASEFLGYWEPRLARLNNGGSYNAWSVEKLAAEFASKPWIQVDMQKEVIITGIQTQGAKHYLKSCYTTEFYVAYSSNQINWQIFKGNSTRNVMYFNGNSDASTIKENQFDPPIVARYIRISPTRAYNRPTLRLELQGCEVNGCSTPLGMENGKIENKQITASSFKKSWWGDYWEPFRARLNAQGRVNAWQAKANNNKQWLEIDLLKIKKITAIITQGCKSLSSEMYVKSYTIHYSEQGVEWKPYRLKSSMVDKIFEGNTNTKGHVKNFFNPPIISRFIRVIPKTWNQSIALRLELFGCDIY
As to the kind of experiment: filter; lead clone; also at 2.0 uM inhibits FVa-phospholipid docking by light scattering (p125). As to conditions: tags: modified FVa, protease-stabilised form described previously; label: 5'-32P.

The target in series [2] is T2, Coagulation Factor V (FV), modified (Homo sapiens, UniProt P12259 P12259:29-2224). As to the kind of experiment: filter; lead clone chosen by aPTT activity and binding to FV and FVa; no value given. As to conditions: tags: modified FV, protease-stabilised form described previously; label: 5'-32P.
The target of series [3] is T2, Coagulation Factor V (FV), modified. As to the kind of experiment: FP_none filter. To be noted: tags: modified FV, protease-stabilised form described previously; label: 5'-32P. How it is done: (§1) Apparent binding affinity of the aptamers to a purified protein was determined using double filter nitrocellulose binding assays. Binding of the radiolabeled pooled RNA, 11HMT, and 11Mut2 to modified FV and FVa was assessed by incubating trace amounts of radiolabeled RNA with serial dilutions of the purified target protein. For SELEX round binding, pooled RNAs were incubated with modified FV or FVa diluted two fold from 0 nM to 750-800 nM for both proteins. For 11HMT, the radiolabeled RNAs were incubated with both proteins from 0 nM to 500 nM. The radiolabeled RNAs were denatured and re-folded in Hepes-buffered saline (HBS) with CaCl2 (20 mM Hepes pH 7.4, 150 mM NaCl, 2 mM CaCl2), 0.01% bovine serum albumin (BSA), and 0.1% w/v polyethylene glycol 8000 (PEG 8000) by incubating at 95° C. for 3 minutes followed by cooling to room temperature for 3 minutes. The radiolabeled RNA alone was incubated at 37° C. for 5 minutes, followed by incubation with the protein in HBS with CaCl2, 0.01% BSA, and 0.1% w/v PEG 8000 at 37° C. for 5 minutes. […] Bound and unbound RNA was quantitated using a Storm 825 phosphoimager (GE Healthcare, Little Chalfont, Buckinghamshire, UK) and quantified via densitometry.
Target sequence in this assay (P12259 29-2224, one chain of several): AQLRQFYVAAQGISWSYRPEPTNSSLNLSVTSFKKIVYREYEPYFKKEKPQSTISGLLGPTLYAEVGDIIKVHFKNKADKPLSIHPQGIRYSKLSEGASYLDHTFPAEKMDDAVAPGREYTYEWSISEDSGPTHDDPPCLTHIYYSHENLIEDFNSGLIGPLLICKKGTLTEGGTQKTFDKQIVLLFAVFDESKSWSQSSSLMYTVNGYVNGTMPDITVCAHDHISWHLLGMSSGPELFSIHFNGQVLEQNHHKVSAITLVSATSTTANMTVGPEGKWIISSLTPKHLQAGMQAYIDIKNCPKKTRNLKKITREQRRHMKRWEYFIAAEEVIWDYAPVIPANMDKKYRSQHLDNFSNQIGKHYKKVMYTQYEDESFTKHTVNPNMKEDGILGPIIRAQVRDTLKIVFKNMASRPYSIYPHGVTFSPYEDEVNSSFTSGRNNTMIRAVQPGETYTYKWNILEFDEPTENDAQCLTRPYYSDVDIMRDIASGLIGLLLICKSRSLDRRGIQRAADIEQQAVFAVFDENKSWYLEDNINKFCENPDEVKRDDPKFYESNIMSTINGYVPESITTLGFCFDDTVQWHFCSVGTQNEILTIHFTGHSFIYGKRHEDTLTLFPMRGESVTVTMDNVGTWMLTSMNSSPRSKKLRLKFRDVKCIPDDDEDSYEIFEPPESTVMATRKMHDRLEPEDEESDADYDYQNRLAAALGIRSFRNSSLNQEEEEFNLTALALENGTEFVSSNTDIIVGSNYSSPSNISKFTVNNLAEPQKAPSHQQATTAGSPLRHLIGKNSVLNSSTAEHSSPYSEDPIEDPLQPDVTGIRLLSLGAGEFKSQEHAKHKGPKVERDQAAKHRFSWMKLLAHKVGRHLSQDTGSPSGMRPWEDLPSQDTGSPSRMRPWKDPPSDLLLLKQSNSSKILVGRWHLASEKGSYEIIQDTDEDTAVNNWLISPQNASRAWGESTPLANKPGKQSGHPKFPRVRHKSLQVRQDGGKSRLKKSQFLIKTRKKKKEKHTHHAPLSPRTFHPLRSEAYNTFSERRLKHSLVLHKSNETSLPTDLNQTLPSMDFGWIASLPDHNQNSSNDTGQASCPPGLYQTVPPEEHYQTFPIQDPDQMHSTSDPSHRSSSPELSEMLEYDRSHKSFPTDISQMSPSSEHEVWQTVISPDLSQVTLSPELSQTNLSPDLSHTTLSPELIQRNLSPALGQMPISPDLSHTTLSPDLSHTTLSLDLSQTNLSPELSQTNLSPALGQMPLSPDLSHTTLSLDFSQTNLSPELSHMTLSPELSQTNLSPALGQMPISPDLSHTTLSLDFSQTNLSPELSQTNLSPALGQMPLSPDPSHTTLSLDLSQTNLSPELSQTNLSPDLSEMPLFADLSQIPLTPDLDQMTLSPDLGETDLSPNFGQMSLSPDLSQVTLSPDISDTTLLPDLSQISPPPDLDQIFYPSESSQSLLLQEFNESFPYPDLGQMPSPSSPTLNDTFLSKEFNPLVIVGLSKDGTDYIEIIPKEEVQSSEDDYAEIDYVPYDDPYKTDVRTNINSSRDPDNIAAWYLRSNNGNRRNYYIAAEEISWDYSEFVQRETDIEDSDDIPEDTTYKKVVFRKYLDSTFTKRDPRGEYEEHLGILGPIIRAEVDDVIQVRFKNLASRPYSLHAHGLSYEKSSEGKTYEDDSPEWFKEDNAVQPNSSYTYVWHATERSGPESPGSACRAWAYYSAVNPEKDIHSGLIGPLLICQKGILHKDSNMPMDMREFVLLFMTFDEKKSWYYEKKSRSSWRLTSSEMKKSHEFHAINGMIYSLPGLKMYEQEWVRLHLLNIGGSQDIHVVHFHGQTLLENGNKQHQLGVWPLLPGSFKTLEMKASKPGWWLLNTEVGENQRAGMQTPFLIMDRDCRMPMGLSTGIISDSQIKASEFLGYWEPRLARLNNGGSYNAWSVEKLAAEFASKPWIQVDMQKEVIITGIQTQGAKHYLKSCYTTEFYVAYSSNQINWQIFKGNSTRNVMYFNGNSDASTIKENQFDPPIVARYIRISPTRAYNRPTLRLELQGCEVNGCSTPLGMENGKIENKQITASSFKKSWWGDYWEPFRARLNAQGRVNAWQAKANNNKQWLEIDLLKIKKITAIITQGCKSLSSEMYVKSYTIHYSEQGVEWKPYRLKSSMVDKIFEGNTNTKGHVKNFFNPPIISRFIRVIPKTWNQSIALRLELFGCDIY

Series [4] concerns the target T1, Coagulation Factor Va (FVa), modified. As to the kind of experiment: filter; HBS 2 mM CaCl2, 0.01% BSA, 0.1% PEG 8000, 37 C; low Bmax. As to conditions: tags: modified FVa, protease-stabilised form described previously; label: 5'-32P. How it is done: as §1
For series [5], the target named is T2, Coagulation Factor V (FV), modified. As to the kind of experiment: filter; no binding above starting library. As to conditions: tags: modified FV, protease-stabilised form described previously; label: 5'-32P. The procedure: as §1
In series [6] the target is T1, Coagulation Factor Va (FVa), modified. As to the kind of experiment: filter; no binding above starting library. To be noted: tags: modified FVa, protease-stabilised form described previously; label: 5'-32P. The procedure: as §1
For series [7] the target is unchanged. As to the kind of experiment: SPR; three runs: 6.222, 5.408, 5.115; text ~6 nM; HBS 2 mM CaCl2, 25 C. To be noted: tags: modified FVa, protease-stabilised form described previously; label: 5'-biotin. How it is done:
(§2) The T18.3 binding constants were determined using surface plasmon resonance (SPR) with a BiaCore3000 (GE Healthcare). This method was used to determine apparent KDs for T18.3 to modified FV, modified FVa, the FV heavy chain, and the FV light chain. The T18.3 aptamer was synthesized (Biosynthesis, Lewisville, Tex.) and included a biotin and PEG 11 spacer on the 5′ end to allow for immobilization of the aptamer on a biotin CAPture chip kit (GE Healthcare). Prior to chip coating, the biotinylated T18.3 was refolded using the same protocol as the in vitro transcribed T18.3 by heating to 95° C. for 3 minutes followed by 3 minutes at room temperature. Aptamer conjugation onto the chip was achieved by flowing aptamer solution over the chip at a rate of 2 μL/min for 5 minutes. For binding to the modified FV, FVa, and purified FV heavy chain, 5.0 ng of aptamer was coated onto the chip. For the purified FV light chain experiments 15.3 ng of aptamer was coated onto the chip. Binding experiments using SPR was performed at 25° C. in HBS with CaCl2, without the addition of BSA or PEG 8000. […] Increasing concentrations of protein were flowed over the T18.3-coated chip and apparent KD was determined by calculating the differences in response units (RU) from buffer for each protein concentration immediately before the end of each protein injection and plotted as ΔRU versus protein concentration. […]
For orientation: In SPR one partner is held on a chip, and binding of the other changes the refractive index at the surface.

Series [8] deals with T2, Coagulation Factor V (FV), modified. As to the kind of experiment: SPR; three runs: 16.55, 10.00, 8.213; text ~10 nM; HBS 2 mM CaCl2, 25 C. To be noted: tags: modified FV, protease-stabilised form described previously; label: 5'-biotin. The procedure:
as §2

The target in series [9] is Factor V light chain (UniProt P12259 P12259:1574-2224). As to the kind of experiment: SPR; three runs: 1.926, 1.504, 7.997; text ~5 nM; HBS 2 mM CaCl2, 25 C. To be noted: label: 5'-biotin. The procedure: as §2
For series [10], the target named is T2, Coagulation Factor V (FV), modified. As to the kind of experiment: filter; no binding above starting library. To be noted: tags: modified FV, protease-stabilised form described previously; label: 5'-32P. This is another data set of the same source.
Series [11] concerns the target Factor Xa (Homo sapiens, UniProt P00742;P00742 P00742:41-179,P00742:235-488). As to the kind of experiment: filter; no binding up to 1000 nM FXa. As to conditions: label: 5'-32P.
Series [12] concerns the target T1, Coagulation Factor Va (FVa), modified. As to the kind of experiment: filter; lead clone chosen by aPTT activity and binding to FV and FVa; no value given. As to conditions: tags: modified FVa, protease-stabilised form described previously; label: 5'-32P.

Sequence of Factor Xa (P00742 41-179, chain 1 of 2): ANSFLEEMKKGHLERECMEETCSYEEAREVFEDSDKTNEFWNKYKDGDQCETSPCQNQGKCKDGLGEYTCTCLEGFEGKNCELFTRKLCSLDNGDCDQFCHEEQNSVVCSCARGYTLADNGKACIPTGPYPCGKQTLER
Sequence of Factor Xa (P00742 235-488, chain 2 of 2): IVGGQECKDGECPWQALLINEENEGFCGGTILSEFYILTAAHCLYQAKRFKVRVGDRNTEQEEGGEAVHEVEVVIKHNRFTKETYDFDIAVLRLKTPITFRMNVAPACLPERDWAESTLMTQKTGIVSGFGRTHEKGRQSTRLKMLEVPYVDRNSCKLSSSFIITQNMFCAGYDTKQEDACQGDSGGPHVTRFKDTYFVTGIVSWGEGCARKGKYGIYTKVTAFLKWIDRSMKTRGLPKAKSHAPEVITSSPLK

B1: FV R8c7 (ssRNA)
RNA: GGGAGGACGAUGCGGUCGCCCAAACUUGGAUAACCUCACCGCAAUGGCGGCUUGUCAGACGACUCGCUGAGGAUCCGAGA
modifications: 2'-F C and U
Turning to B1, the binding result in series [1] and in [2] was “binds” throughout.

As usually defined, the Kd is the equilibrium constant for the complex coming apart. Higher therefore signals lower affinity. In the case of GGAUCCAACGCACAAUUACGUGCCUUGUCAGACGACUCGCUGAGGAUCC (ssRNA, 2'-F C and U) [11HMT], the Kd in series [3] is 23.2 nM; in series [4], 0.822 nM.

With GGAUCCAACGCACAAUUACGUGCCGGUUCAGACGACUCGCUGAGGAUCC (ssRNA, 2'-F C and U) [11Mut2], the binding result in [5] and in series [6] was “no binding” in each case.

B2: T18.3 biotinylated (ssRNA)
RNA: GGACUUGGAUAACCUCACCGCAAUGGCGGCUUGUCAGACGACUCGCUGAGGAUCCGAG
modifications: 2'-F C and U; 5' biotin and PEG11 spacer
For B2, the Kd is 5.64 nM in [7], 11.7 nM in series [8] and 3.47 nM in series [9].

B3: 18.3Mut1 (ssRNA)
RNA: GGACUUGGAUAACCUCACCGCAAUGGCGGAGGGUCAGACGACUCGCUGAGGAUCCGAG
modifications: 2'-F C and U
For the molecule B3, the binding result in [10] and in series [11] was “no binding” throughout.

B4: T18.3 (ssRNA)
RNA: GGACUUGGAUAACCUCACCGCAAUGGCGGCUUGUCAGACGACUCGCUGAGGAUCCGAG
modifications: 2'-F C and U
For B4, in series [11], the binding result is reported as “no binding”.

B5: FVa R9c11 (ssRNA)
RNA: GGGAGGACGAUGCGGUCACGCCCCUCAGGAUCCAACGCACAAUUACGUGCCUUGUCAGACGACUCGCUGAGGAUCCGAGA
modifications: 2'-F C and U
As to B5, the binding result in series [2] and in series [12] was “binds” in each case.
